Laboratory results published in patent publication US20160009821A1 (TDW GROUP, published 2016).

Biological target: T1, Human argininosuccinate synthase (endogenous, in human tissues and human cancer cell lines) (human, UniProt P00966 1-412)
T1 construct: Endogenous protein in formalin-fixed, paraffin-embedded human tissue and cell line sections, with cytoplasmic staining; also called ASS; ASS1
T1 sequence: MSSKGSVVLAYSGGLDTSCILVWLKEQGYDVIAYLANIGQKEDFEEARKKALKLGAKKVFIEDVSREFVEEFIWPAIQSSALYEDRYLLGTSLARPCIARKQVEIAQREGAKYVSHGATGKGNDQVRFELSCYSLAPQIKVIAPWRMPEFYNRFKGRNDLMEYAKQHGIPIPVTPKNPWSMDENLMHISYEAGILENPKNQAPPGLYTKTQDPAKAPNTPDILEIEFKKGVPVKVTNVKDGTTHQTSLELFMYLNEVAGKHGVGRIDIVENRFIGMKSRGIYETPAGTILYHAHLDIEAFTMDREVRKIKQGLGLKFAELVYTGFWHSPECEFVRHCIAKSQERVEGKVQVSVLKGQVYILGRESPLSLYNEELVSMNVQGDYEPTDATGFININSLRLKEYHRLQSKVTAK
Test: immunohistochemistry on formalin-fixed, paraffin-embedded clinical samples
Procedure: Formalin-fixed, paraffin-embedded specimens were sectioned at 4-5 μm and mounted on positively charged slides. Slides were air dried and then placed in a 60° C. oven for 60 minutes. Slides were stained using the Leica Bond III instrument. Paraffin was removed from the slides using the standard Leica Bond dewax protocol. The tissue was antigen retrieved with either Bond ER1 for 5 or Bond ER2 for 20 minutes.
Mouse anti-argininosuccinate synthase monoclonal antibody was applied to the slide at a concentration of 0.625 μg/mL and incubated for 15 min or 0.4 μg/mL and incubated for 30 minutes. The Leica Bond Polymer Refine Detection kit was used to visualize the staining—post primary for 8 minutes and polymer for 8 minutes. The slides were then treated with Peroxide Block for five minutes followed by Mixed DAB Refine for ten minutes. Stained sections were counterstained with hematoxylin for […] The slides were then dehydrated and cover-slipped.

B1: Mouse anti-argininosuccinate synthase monoclonal antibody used for immunohistochemistry in Example 2 (antibody, V domains shown)
VH: QIQLVQSGPELKKPGETVKISCKTSGYTFTDYSIHWVKQAPGKGLTWMGWINTETGEPTYADDFKGRFALSLETSASTAYLQLKNLRNEDTATYFCGSSYSYWGQGTLVTVSS
VL: DVVMTQTPLSLPVSLGDQASISCRSSQSLENSNGKTYLNWFLQKPGQSPQLLIYRVSNRFSGVPDRFSGSGSGTEFTLKISRVEAEDLGVYFCLQVKHVPWTFGGGTKLEIK
binding result: binds
